Assay results from patent publication US20120201781A1 (AbbVie / Abbott, published 2012).

Assays:
recombinant human IL-1α [1] = target: T1, recombinant human IL-1α (human, UniProt P01583 113-271); assay: SPR (Biacore)
T1 construct: Purified recombinant protein bought from R&D Systems; also called hIL-1α; rhIL-1α
T1 sequence: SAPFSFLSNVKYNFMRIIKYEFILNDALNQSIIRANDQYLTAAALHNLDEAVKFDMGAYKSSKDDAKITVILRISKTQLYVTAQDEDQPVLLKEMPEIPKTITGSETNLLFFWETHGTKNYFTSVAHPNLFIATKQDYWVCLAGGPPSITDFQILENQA
Description: (§1) The equilibrium dissociation constant (M) of the reaction between DVD-Ig molecule and rhIL1α/β was then calculated from the kinetic rate constants by the following formula: KD=koff/kon. Aliquots of rhIL1α/β samples were also simultaneously injected over a blank reference and reaction CM surface to record and subtract any nonspecific binding background to eliminate the majority of the refractive index change and injection noise. Surfaces were regenerated with two subsequent […] injections of 10 mM Glycine (pH 1.5) at a flow rate of […]. The anti-Fc antibody immobilized surfaces were completely regenerated and retained their full capture capacity over twelve cycles. The apparent stoichiometry of the captured DVD-Ig-rhIL1α/β complex was calculated under saturating binding conditions (steady-state equilibrium) using the following formula: […]
(§2) The affinity of the two DVD-Ig binding proteins to hIL-1 as compared to the affinity of chimeric antibodies to hIL-1 was similar as indicated by the evaluation of the stoichiometry to IL-1. Both chimeric antibodies, being bivalent monospecific, bound to IL-1α and IL-1β on Biacore with a stoichiometry of 1.6 and 1.7, respectively. This is common for an IgG due to inter-molecular interference when antibodies are immobilized densely on the Biacore sense chip resulting in stoichiometry being in the range from 1.5 to 2.0.

recombinant human IL-1α [2] = target: T1, recombinant human IL-1α; assay: cell-based or functional assay
recombinant human IL-1α [3] = target: T1, recombinant human IL-1α; assay: cell-based or functional assay; remark: listed apart in the source
recombinant human IL-1β [4] = target: T2, recombinant human IL-1β (human, UniProt P01584 117-269); assay: cell-based or functional assay
recombinant human IL-1α [5] = target: T1, recombinant human IL-1α; assay: SPR (Biacore), hIL-1α as 1st antigen
Description: (§3) In addition, tetravalent dual-specific antigen binding of DVD-Ig binding protein was also analyzed by Biacore (Table 14). DVD-Ig binding protein was first captured via a goat anti-human Fc antibody on the Biacore sensor chip, and the first antigen was injected and a binding signal observed. As the DVD-Ig binding protein was saturated by the first antigen, the second antigen was then injected and the second signal observed. This was done either by first injecting IL-1β then IL-1α or by first injecting IL-1α followed by IL-1β for DVD2-Ig binding protein. In either sequence, a dual-binding activity was detected. Similar results were obtained for DVD1-Ig binding protein. Thus, each DVD-Ig binding protein was able to bind both antigens simultaneously as a dual-specific tetravalent molecule. […] Upon the injection of the second antigen, while DVD-Ig binding protein was already occupied by the first antigen, the stoichiometry of both DVD-Igs binding protein to the second antigen (i.e., hIL-1α or hIL-1β was between 1.0 and 1.3. Thus, DVD-Ig binding protein was able to bind two IL-1α and two IL-β molecules. DVD-Ig binding protein was first captured via a goat anti-human Fc antibody on the Biacore sensor chip, and the first antigen was injected and a binding signal observed, followed by the injection of the second antigen.

recombinant human IL-1β [6] = target: T2, recombinant human IL-1β; assay: SPR (Biacore), hIL-1β as 1st antigen
Description: as §3

recombinant human IL-1α [7] = target: T1, recombinant human IL-1α; assay: SPR (Biacore 3000), saturating binding
Description: as §1, with “The association and dissociation rate constants, kon (M-1s-1) and koff (s-1) were determined under a continuous flow rate of 25 ml/minute. […] The equilibrium” for “The equilibrium”
as §2

recombinant human IL-1β [8] = target: T2, recombinant human IL-1β; assay: SPR (Biacore 3000), saturating binding
Description: as §1, with “The association and dissociation rate constants, kon (M-1s-1) and koff (s-1) were determined under a continuous flow rate of 25 ml/minute. […] The equilibrium” for “The equilibrium”
as §2

recombinant human IL-1α [9] = target: T1, recombinant human IL-1α; assay: SPR (Biacore), hIL-1α as 2nd antigen after hIL-1β
Description: as §3

recombinant human IL-1β [10] = target: T2, recombinant human IL-1β; assay: SPR (Biacore), hIL-1β as 2nd antigen after hIL-1α
Description: as §3

recombinant human IL-1α [11] = target: T1, recombinant human IL-1α; assay: SPR (Biacore 3000), binder captured via goat anti-human IgG Fc
Description: (§4) Approximately, 5000 RU of goat anti-human IgG Fcγ fragment specific polyclonal antibody (Pierce Biotechnology Inc, Rockford, Ill.) diluted in 10 mM sodium acetate (pH 4.5) was directly immobilized across a CM5 research grade biosensor chip using a standard amine coupling kit according to manufacturer's instructions and procedures at […]. Unreacted moieties on the biosensor surface were blocked with ethanolamine. Modified carboxymethyl dextran surface in flowcell 2 and 4 was used as a reaction surface. Unmodified carboxymethyl dextran without goat anti-human IgG in flow cell 1 and 3 was used as the reference surface. For kinetic analysis, rate equations derived from the 1:1 Langmuir binding model were fitted simultaneously to association and dissociation phases of all ten injections (using global fit analysis) using the Bioevaluation 4.0.1 software. Purified DVD-Ig samples were diluted in HEPES-buffered saline for capture across goat anti-human IgG Fc specific reaction surfaces and injected over reaction matrices at a flow rate of […]. The association and dissociation rate constants, kon (M-1s-1) and koff (s-1) were determined under a continuous flow rate of 25 ml/minute. […] The equilibrium dissociation constant (M) of the reaction between DVD-Ig molecule and rhIL1α/β was then calculated from the kinetic rate constants by the following formula: KD=koff/kon. Aliquots of rhIL1α/β samples were also simultaneously injected over a blank reference and reaction CM surface to record and subtract any nonspecific binding background to eliminate the majority of the refractive index change and injection noise. Surfaces were regenerated with two subsequent […] injections of 10 mM Glycine (pH 1.5) at a flow rate of […]. The anti-Fc antibody immobilized surfaces were completely regenerated and retained their full capture capacity over twelve cycles. The apparent stoichiometry of the captured DVD-Ig-rhIL1α/β complex was calculated under saturating binding conditions (steady-state equilibrium) using the following formula: […]

recombinant human IL-1β [12] = target: T2, recombinant human IL-1β; assay: as above
Description: as §4

murine IL-1β [13] = target: T3, murine IL-1β (mouse, UniProt P10749 118-269); assay: cell-based or functional assay
T3 sequence (looked up): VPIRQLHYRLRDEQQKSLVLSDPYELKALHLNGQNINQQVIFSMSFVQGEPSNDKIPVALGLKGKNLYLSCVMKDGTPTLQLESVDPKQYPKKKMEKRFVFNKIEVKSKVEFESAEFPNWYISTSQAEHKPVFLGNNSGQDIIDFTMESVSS

murine IL-1β [14] = target: T3, murine IL-1β; assay: affinity, method not named for this table (Biacore elsewhere)
murine IL-1α [15] = target: T4, murine IL-1α (mouse, UniProt P01582 115-270); assay: cell-based or functional assay
T4 sequence (looked up): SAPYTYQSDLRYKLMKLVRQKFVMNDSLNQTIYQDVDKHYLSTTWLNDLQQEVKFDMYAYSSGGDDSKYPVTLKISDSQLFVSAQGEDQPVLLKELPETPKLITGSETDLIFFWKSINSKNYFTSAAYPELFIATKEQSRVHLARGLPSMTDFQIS

murine IL-1α [16] = target: T4, murine IL-1α; assay: affinity, method not named for this table (Biacore elsewhere)

B1: hIL-1α/β DVD1-Ig binding protein (bispecific antibody, human IgG1, kappa)
heavy: not shown
light: NIVLTQSPASLAVSLGQRATISCRASESVDSYGNSYMHWYQQKPGQPPKLLIYLASNLESGVPARFSGSGSRTDFTLTIDPVEADDAATYYCQQNNEDPFTFGSGTKLEIKRNIQMTQTTSSLSASLGDRVTISCRASQDISNCLNWYQQKPDGTVKLLIYYTSRLHSGVPSRFSGSGSGTDYSLTISNLEQEDIATYFCQQGKTLPYAFGGGTKLEINRRTVAAPSVFIFPPSDEQLKSGTASVVCLLNNFYPREAKVQWKVDNALQSGNSQESVTEQDSKDSTYSLSSTLTLSKADYEKHKVYACEVTHQGLSSPVTKSFNRGEC
notes: 13F5.G5 variable domains fused directly (no linker) to the N-terminus of 3D12.E3 variable domains, human Cγ1/Cκ
In the case of B1, the “fold lower affinity than the chimeric 3D12.E3 antibody” value (recombinant human IL-1α [1]) is reported as 2 to 3 fold, the “neutralizing activity in MRC-5 bioassay, fold less than the chimeric antibodies” value (recombinant human IL-1α [2]) is reported as 3 fold and the “Potency (IC50) M, MRC-5 bioassay” value (recombinant human IL-1α [3]) is reported as 2.3 nM. For the same binder, the “Potency (IC50) M, MRC-5 bioassay” value (recombinant human IL-1β [4]) was 3.1 nM, the “Stoichiometry hIL-1α:DVD-Ig” value (recombinant human IL-1α [5]) was 2.3 and the “Stoichiometry hIL-1β:DVD-Ig” value (recombinant human IL-1β [6]) was 1.5. The Stoichiometry (recombinant human IL-1α [7]) was 1.8, the Stoichiometry (recombinant human IL-1β [8]) was 1.5 and the “Stoichiometry hIL-1α:DVD-Ig” value (recombinant human IL-1α [9]) was 1.1. The “Stoichiometry hIL-1β:DVD-Ig” value (recombinant human IL-1β [10]) was 1, the Kd (recombinant human IL-1α [11]) was 2.83 nM and the koff (recombinant human IL-1α [11]) was 0.000105 s⁻¹. The kon (recombinant human IL-1α [11]) was 37000 M⁻¹ s⁻¹, the Kd (recombinant human IL-1β [12]) was 2.6 nM and the koff (recombinant human IL-1β [12]) was 0.00159 s⁻¹. For the same binder, the kon (recombinant human IL-1β [12]) was 609000 M⁻¹ s⁻¹.

B2: mouse anti-mouse IL-1β monoclonal antibody 10G11 (antibody, V domains shown)
VH: EVQLQQSGPELVKPGTSVKMSCKTSGYTFTSYVMHWVKQKPGQGLEWIGYIIPYNDNTKYNEKFKGKATLTSDKSSSTAYMELSSLTSEDSAVYYCARRNEYYGSSFFDYWGQGTTLTVSS
VL: DIQMTQSPASLSASVGETVTITCRGSGILHNYLVWYQQKQGKSPQLLVYSAKILADGVPSRFSGSGSGTQYSLKINSLQPEDFGSYYCQHFWSTPFTFGSGTKLEIKR
notes: Mouse mAb from IL-1αβ double KO mice; also called anti-IL-1β (10G11)
B2 was tested, and the “IC50 (M), in vitro potency” value (murine IL-1β [13]) was 3.7e-10 M and the Kd (murine IL-1β [14]) was 0.23 nM.

B3: mIL-1α/β DVD-Ig binding protein (bispecific antibody, mouse IgG2a, kappa)
heavy: EVQLQQSGPELVKPGTSVKMSCKTSGYTFTSYVMHWVKQKPGQGLEWIGYIIPYNDNTKYNEKFKGKATLTSDKSSSTAYMELSSLTSEDSAVYYCARRNEYYGSSFFDYWGQGTTLTVSSAKTTAPSVYPLAPQVILKESGPGILQPSQTLSLTCSFSGFSLSTYGTAVNWIRQPSGKGLEWLAQIGSDDRKLYNPFLKSRITLSEDTSNSQVFLKITSVDTEDSATYYCANGVMEYWGLGTSVTVSSAKTTAPSVYPLAPVCGDTTGSSVTLGCLVKGYFPEPVTLTWNSGSLSSGVHTFPAVLQSDLYTLSSSVTVTSSTWPSQSITCNVAHPASSTKVDKKIEPRGPTIKPCPPCKCPAPNLLGGPSVFIFPPKIKDVLMISLSPIVTCVVVDVSEDDPDVQISWFVNNVEVHTAQTQTHREDYNSTLRVVSALPIQHQDWMSGKEFKCKVNNKDLPAPIERTISKPKGSVRAPQVYVLPPPEEEMTKKQVTLTCMVTDFMPEDIYVEWTNNGKTELNYKNTEPVLDSDGSYFMYSKLRVEKKNWVERNSYSCSVVHEGLHNHHTTKSFSRTPGK
light: DIQMTQSPASLSASVGETVTITCRGSGILHNYLVWYQQKQGKSPQLLVYSAKILADGVPSRFSGSGSGTQYSLKINSLQPEDFGSYYCQHFWSTPFTFGSGTKLEIKRADAAPTVSIFPPSIVMTQTPKFLLVSAGDRVTITCKASQSVNHDVAWYQQMPGQSPKLLIYFASNRYTGVPDRFTGSGYGTDFTFTISTVQAEDLAVYFCQQDYSSPYTFGGGTKLEIKRADAAPTVSIFPPSSEQLTSGGASVVCFLNNFYPKDINVKWKIDGSERQNGVLNSWTDQDSKDSTYSMSSTLTLTKDEYERHNSYTCEATHKTSTSPIVKSFNRNEC
notes: V(anti-mIL-1β 10G11)-linker-V(anti-mIL-1α 9H10)-murine constant region (Cγ2a and Cκ); also called mDVD4-Ig; murine IL-1α/β DVD4-Ig
B3 was tested, and the “IC50 (M), in vitro potency” value (murine IL-1α [15]) was 2e-09 M, the “IC50 (M), in vitro potency” value (murine IL-1β [13]) was 8e-10 M and the Kd (murine IL-1α [16]) was 0.766 nM. The Kd (murine IL-1β [14]) was 0.694 nM.
